{"source": "the Human Domainome abundance scans (Beltran et al. 2025)", "parents": {"B1": {"name": "Gamma-crystallin C, residues 91 to 170; numbered along this chain, P07315 (parent)", "chain": "RLYEREDHKGLMMELSEDCPSIQDRFHLSEIRSLHVLEGCWVLYELPNYRGRQYLLRPQEYRRCQDWGAMDAKAGSLRRV"}, "B2": {"name": "Transitional endoplasmic reticulum ATPase, residues 26 to 106; numbered along this chain, P55072 (parent)", "chain": "LIVDEAINEDNSVVSLSQPKMDELQLFRGDTVLLKGKKRREAVCIVLSDDTCSDEKIRMNRVVRNNLRVRLGDVISIQPCP"}}, "note": "± gives the uncertainty stated by the source.", "data": [{"variants_of": "B1", "experiment": "abundance fitness (aPCA) (normalised: wild type 0, dead -1); higher = more abundant; growth selection in yeast, the domain comes from the species named", "details": "Homo sapiens", "values": [{"variant": "L77V", "abundance fitness": "-0.169 ± 0.096"}, {"variant": "L77T", "abundance fitness": "-0.626 ± 0.23"}, {"variant": "L77M", "abundance fitness": "-0.035 ± 0.1"}, {"variant": "L77R", "abundance fitness": "-1.06 ± 0.31"}, {"variant": "L77I", "abundance fitness": "0.011 ± 0.36"}, {"variant": "V80I", "abundance fitness": "-0.341 ± 0.21"}, {"variant": "V80F", "abundance fitness": "-0.1 ± 0.17"}, {"variant": "R79S", "abundance fitness": "-0.202 ± 0.29"}]}, {"variants_of": "B2", "experiment": "abundance fitness (aPCA) (normalised: wild type 0, dead -1); higher = more abundant; growth selection in yeast, the domain comes from the species named", "details": "Homo sapiens", "values": [{"variant": "S17H", "abundance fitness": "-0.396 ± 0.38"}, {"variant": "S17C", "abundance fitness": "-0.381 ± 0.11"}, {"variant": "S17A", "abundance fitness": "-0.174 ± 0.052"}, {"variant": "S17M", "abundance fitness": "-0.995 ± 0.15"}, {"variant": "S17P", "abundance fitness": "-0.365 ± 0.069"}, {"variant": "S17Y", "abundance fitness": "-0.806 ± 0.21"}, {"variant": "S17D", "abundance fitness": "-1.01 ± 0.34"}, {"variant": "S17K", "abundance fitness": "-0.361 ± 0.097"}, {"variant": "S17L", "abundance fitness": "-0.854 ± 0.11"}, {"variant": "S17F", "abundance fitness": "-0.698 ± 0.18"}, {"variant": "S17V", "abundance fitness": "-1.03 ± 0.26"}, {"variant": "S17G", "abundance fitness": "-0.153 ± 0.043"}, {"variant": "S17R", "abundance fitness": "-0.431 ± 0.043"}, {"variant": "S17Q", "abundance fitness": "-0.671 ± 0.1"}, {"variant": "S17I", "abundance fitness": "-0.79 ± 0.17"}, {"variant": "V14W", "abundance fitness": "-0.816 ± 0.13"}, {"variant": "V14T", "abundance fitness": "-0.743 ± 0.11"}, {"variant": "V14Q", "abundance fitness": "-1.02 ± 0.26"}, {"variant": "V14I", "abundance fitness": "0.042 ± 0.084"}, {"variant": "V14F", "abundance fitness": "-1.06 ± 0.25"}, {"variant": "V14P", "abundance fitness": "-0.977 ± 0.19"}, {"variant": "V14G", "abundance fitness": "-0.758 ± 0.054"}, {"variant": "V14H", "abundance fitness": "-0.956 ± 0.2"}, {"variant": "V14Y", "abundance fitness": "-0.803 ± 0.23"}, {"variant": "V14S", "abundance fitness": "-0.801 ± 0.068"}, {"variant": "V14L", "abundance fitness": "-0.763 ± 0.073"}, {"variant": "V14A", "abundance fitness": "-0.341 ± 0.048"}, {"variant": "V14R", "abundance fitness": "-0.884 ± 0.083"}, {"variant": "V14D", "abundance fitness": "-0.704 ± 0.12"}, {"variant": "V14K", "abundance fitness": "-0.856 ± 0.32"}, {"variant": "V14C", "abundance fitness": "-0.11 ± 0.069"}, {"variant": "V14E", "abundance fitness": "-0.945 ± 0.31"}, {"variant": "E9Q", "abundance fitness": "-0.127 ± 0.12"}, {"variant": "E9W", "abundance fitness": "-0.098 ± 0.049"}, {"variant": "E9S", "abundance fitness": "0.043 ± 0.061"}, {"variant": "E9K", "abundance fitness": "-0.216 ± 0.079"}, {"variant": "E9H", "abundance fitness": "-0.109 ± 0.11"}, {"variant": "E9L", "abundance fitness": "-0.087 ± 0.044"}, {"variant": "E9V", "abundance fitness": "-0.157 ± 0.052"}, {"variant": "E9T", "abundance fitness": "-0.107 ± 0.076"}, {"variant": "E9D", "abundance fitness": "0.041 ± 0.091"}, {"variant": "E9Y", "abundance fitness": "-0.129 ± 0.13"}, {"variant": "E9P", "abundance fitness": "0.048 ± 0.079"}, {"variant": "E9F", "abundance fitness": "-0.057 ± 0.084"}, {"variant": "E9C", "abundance fitness": "0.045 ± 0.069"}, {"variant": "E9N", "abundance fitness": "0.184 ± 0.24"}, {"variant": "I7F", "abundance fitness": "0.009 ± 0.099"}, {"variant": "I7N", "abundance fitness": "-0.193 ± 0.3"}, {"variant": "I7W", "abundance fitness": "-0.003 ± 0.056"}, {"variant": "I7T", "abundance fitness": "-0.099 ± 0.079"}, {"variant": "I7E", "abundance fitness": "0.127 ± 0.075"}, {"variant": "I7G", "abundance fitness": "-0.011 ± 0.031"}, {"variant": "I7Y", "abundance fitness": "-0.238 ± 0.14"}, {"variant": "I7C", "abundance fitness": "-0.021 ± 0.1"}, {"variant": "I7S", "abundance fitness": "-0.048 ± 0.061"}, {"variant": "I7D", "abundance fitness": "0.032 ± 0.12"}, {"variant": "I7Q", "abundance fitness": "-0.17 ± 0.089"}, {"variant": "I7V", "abundance fitness": "-0.07 ± 0.053"}, {"variant": "I7A", "abundance fitness": "-0.019 ± 0.051"}, {"variant": "I7M", "abundance fitness": "0.039 ± 0.066"}, {"variant": "I7R", "abundance fitness": "-0.042 ± 0.044"}, {"variant": "I7L", "abundance fitness": "0.048 ± 0.05"}, {"variant": "I7H", "abundance fitness": "-0.15 ± 0.13"}, {"variant": "D10Q", "abundance fitness": "-0.072 ± 0.072"}, {"variant": "D10N", "abundance fitness": "-0.228 ± 0.13"}, {"variant": "D10A", "abundance fitness": "-0.059 ± 0.041"}, {"variant": "D10T", "abundance fitness": "-0.01 ± 0.068"}, {"variant": "D10V", "abundance fitness": "-0.14 ± 0.041"}, {"variant": "D10W", "abundance fitness": "-0.189 ± 0.071"}, {"variant": "D10P", "abundance fitness": "-0.02 ± 0.071"}, {"variant": "D10H", "abundance fitness": "0.098 ± 0.13"}, {"variant": "D10M", "abundance fitness": "-0.054 ± 0.058"}, {"variant": "D10K", "abundance fitness": "-0.007 ± 0.11"}, {"variant": "D10L", "abundance fitness": "-0.105 ± 0.042"}, {"variant": "D10Y", "abundance fitness": "-0.096 ± 0.12"}, {"variant": "D10E", "abundance fitness": "-0.159 ± 0.077"}, {"variant": "D10C", "abundance fitness": "-0.165 ± 0.099"}, {"variant": "D10R", "abundance fitness": "-0.158 ± 0.058"}, {"variant": "D10S", "abundance fitness": "-0.14 ± 0.061"}, {"variant": "D10I", "abundance fitness": "-0.121 ± 0.044"}, {"variant": "L16S", "abundance fitness": "-0.595 ± 0.072"}, {"variant": "L16I", "abundance fitness": "-0.005 ± 0.075"}, {"variant": "L16E", "abundance fitness": "-0.762 ± 0.15"}, {"variant": "L16Q", "abundance fitness": "-0.584 ± 0.1"}, {"variant": "L16C", "abundance fitness": "-0.083 ± 0.087"}, {"variant": "L16P", "abundance fitness": "-0.788 ± 0.13"}, {"variant": "L16F", "abundance fitness": "-0.267 ± 0.085"}, {"variant": "L16V", "abundance fitness": "-0.139 ± 0.043"}, {"variant": "L16A", "abundance fitness": "-0.65 ± 0.062"}, {"variant": "L16K", "abundance fitness": "-0.783 ± 0.15"}, {"variant": "L16G", "abundance fitness": "-0.895 ± 0.063"}, {"variant": "L16W", "abundance fitness": "-0.912 ± 0.14"}, {"variant": "L16T", "abundance fitness": "-0.793 ± 0.14"}, {"variant": "L16N", "abundance fitness": "-0.766 ± 0.29"}, {"variant": "V13H", "abundance fitness": "0.053 ± 0.12"}, {"variant": "V13M", "abundance fitness": "-0.143 ± 0.083"}, {"variant": "V13A", "abundance fitness": "-0.125 ± 0.043"}, {"variant": "V13L", "abundance fitness": "-0.095 ± 0.047"}, {"variant": "V13D", "abundance fitness": "-0.103 ± 0.079"}, {"variant": "V13Q", "abundance fitness": "-0.112 ± 0.065"}, {"variant": "V13I", "abundance fitness": "0.053 ± 0.11"}, {"variant": "V13R", "abundance fitness": "-0.113 ± 0.046"}, {"variant": "V13C", "abundance fitness": "0.056 ± 0.11"}, {"variant": "V13K", "abundance fitness": "-0.183 ± 0.064"}, {"variant": "V13W", "abundance fitness": "-0.006 ± 0.053"}, {"variant": "V13E", "abundance fitness": "-0.127 ± 0.066"}, {"variant": "V13Y", "abundance fitness": "0.044 ± 0.084"}, {"variant": "V13P", "abundance fitness": "-0.457 ± 0.088"}, {"variant": "V13G", "abundance fitness": "-0.06 ± 0.03"}, {"variant": "V13N", "abundance fitness": "-0.236 ± 0.12"}, {"variant": "P19Y", "abundance fitness": "0.072 ± 0.24"}, {"variant": "P19C", "abundance fitness": "-0.179 ± 0.11"}, {"variant": "P19D", "abundance fitness": "-0.101 ± 0.16"}, {"variant": "P19W", "abundance fitness": "-0.016 ± 0.08"}, {"variant": "P19S", "abundance fitness": "0.051 ± 0.059"}, {"variant": "P19K", "abundance fitness": "-0.252 ± 0.18"}, {"variant": "P19G", "abundance fitness": "0.063 ± 0.045"}, {"variant": "P19I", "abundance fitness": "0.088 ± 0.12"}, {"variant": "P19A", "abundance fitness": "-0.018 ± 0.054"}, {"variant": "P19M", "abundance fitness": "0.015 ± 0.14"}, {"variant": "P19V", "abundance fitness": "0.047 ± 0.054"}, {"variant": "P19N", "abundance fitness": "-0.251 ± 0.26"}, {"variant": "P19E", "abundance fitness": "0.087 ± 0.088"}, {"variant": "P19H", "abundance fitness": "-0.003 ± 0.15"}, {"variant": "P19Q", "abundance fitness": "0.093 ± 0.1"}, {"variant": "K20Q", "abundance fitness": "-0.014 ± 0.11"}, {"variant": "K20P", "abundance fitness": "-1.19 ± 0.36"}, {"variant": "K20H", "abundance fitness": "-0.389 ± 0.12"}, {"variant": "K20R", "abundance fitness": "-0.019 ± 0.073"}, {"variant": "K20M", "abundance fitness": "0.04 ± 0.074"}, {"variant": "K20D", "abundance fitness": "-0.39 ± 0.22"}, {"variant": "K20N", "abundance fitness": "-0.093 ± 0.1"}, {"variant": "K20C", "abundance fitness": "-0.096 ± 0.11"}, {"variant": "K20A", "abundance fitness": "-0.005 ± 0.062"}, {"variant": "K20F", "abundance fitness": "-0.233 ± 0.09"}, {"variant": "K20S", "abundance fitness": "-0.162 ± 0.056"}, {"variant": "K20L", "abundance fitness": "0.01 ± 0.051"}, {"variant": "K20I", "abundance fitness": "-0.008 ± 0.058"}, {"variant": "K20E", "abundance fitness": "-0.705 ± 0.12"}, {"variant": "N8R", "abundance fitness": "-0.083 ± 0.036"}, {"variant": "N8T", "abundance fitness": "0.046 ± 0.067"}, {"variant": "N8E", "abundance fitness": "0.013 ± 0.061"}, {"variant": "N8M", "abundance fitness": "-0.099 ± 0.068"}, {"variant": "N8S", "abundance fitness": "-0.036 ± 0.053"}, {"variant": "N8H", "abundance fitness": "-0.042 ± 0.095"}, {"variant": "N8L", "abundance fitness": "-0.022 ± 0.049"}, {"variant": "N8Q", "abundance fitness": "-0.025 ± 0.089"}, {"variant": "N8P", "abundance fitness": "-0.096 ± 0.061"}, {"variant": "N8F", "abundance fitness": "-0.083 ± 0.12"}, {"variant": "N8C", "abundance fitness": "-0.015 ± 0.058"}, {"variant": "N8K", "abundance fitness": "-0.011 ± 0.07"}, {"variant": "N8D", "abundance fitness": "0.075 ± 0.09"}, {"variant": "N8G", "abundance fitness": "0.022 ± 0.037"}, {"variant": "N8A", "abundance fitness": "-0.059 ± 0.059"}, {"variant": "N8Y", "abundance fitness": "0.006 ± 0.13"}, {"variant": "N8V", "abundance fitness": "-0.096 ± 0.062"}, {"variant": "N8I", "abundance fitness": "-0.042 ± 0.14"}, {"variant": "N8W", "abundance fitness": "-0.13 ± 0.055"}, {"variant": "Q18E", "abundance fitness": "-0.114 ± 0.1"}]}]}
